Reference: publication PMC2756588

Experiments:
Assay in all cases: SPOT array
[1] = molecular target: T1, Abp1, P15891; details: median of control spots 935
T1 sequence (P15891 535-592, looked up): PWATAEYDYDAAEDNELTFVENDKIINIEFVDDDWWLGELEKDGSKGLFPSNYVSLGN

[2] = molecular target: T2, Bbc1, P47068; details: median of control spots 796
T2 sequence (P47068 1-78, looked up): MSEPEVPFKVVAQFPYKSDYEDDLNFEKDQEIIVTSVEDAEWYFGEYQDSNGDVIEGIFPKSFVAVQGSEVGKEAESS

[3] = molecular target: Bem1-1, P29366; details: median of control spots 4282
Chain of Bem1-1, P29366 (P29366 55-141): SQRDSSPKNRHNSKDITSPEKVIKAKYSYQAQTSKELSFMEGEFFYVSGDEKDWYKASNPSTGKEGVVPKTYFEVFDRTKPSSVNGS

[4] = molecular target: Bem1-2, P29366; details: median of control spots 4347
Chain of Bem1-2, P29366 (P29366 139-227): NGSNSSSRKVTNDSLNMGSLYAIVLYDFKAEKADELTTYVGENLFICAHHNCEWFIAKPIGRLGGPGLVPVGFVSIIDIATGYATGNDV

[5] = molecular target: T3, Boi1, P38041; details: median of control spots 1162
T3 sequence (P38041 1-86, looked up): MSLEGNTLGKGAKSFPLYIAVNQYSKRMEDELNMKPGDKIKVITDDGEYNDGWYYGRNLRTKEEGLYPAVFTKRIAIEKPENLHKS

[6] = molecular target: T4, Boi2, P39969; details: median of control spots 1161
T4 sequence (P39969 32-116, looked up): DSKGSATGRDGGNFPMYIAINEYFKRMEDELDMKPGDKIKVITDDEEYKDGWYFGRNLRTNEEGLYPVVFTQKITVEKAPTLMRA

[7] = molecular target: T5, Bud14, P27637; details: median of control spots 956
T5 sequence (P27637 247-328, looked up): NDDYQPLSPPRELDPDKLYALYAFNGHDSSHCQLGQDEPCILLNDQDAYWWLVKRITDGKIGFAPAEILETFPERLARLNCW

[8] = molecular target: T6, Bzz1-1, P38822; details: median of control spots 4446
T6 sequence (P38822 478-572, looked up): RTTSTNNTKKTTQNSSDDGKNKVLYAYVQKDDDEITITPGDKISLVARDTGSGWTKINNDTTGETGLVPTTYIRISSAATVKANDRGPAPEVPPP

[9] = molecular target: T7, Bzz1-2, P38822; details: median of control spots 4538
T7 sequence (P38822 568-633, looked up): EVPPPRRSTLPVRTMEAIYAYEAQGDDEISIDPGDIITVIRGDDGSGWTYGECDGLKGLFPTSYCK

[10] = molecular target: T8, Cdc25, P04821; details: median of control spots 969
T8 sequence (P04821 50-136, looked up): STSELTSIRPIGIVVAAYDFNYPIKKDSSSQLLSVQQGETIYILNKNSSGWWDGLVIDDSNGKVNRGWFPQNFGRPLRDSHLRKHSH

[11] = molecular target: T9, Cyk3, Q07533; details: median of control spots 1451
T9 sequence (Q07533 1-83, looked up): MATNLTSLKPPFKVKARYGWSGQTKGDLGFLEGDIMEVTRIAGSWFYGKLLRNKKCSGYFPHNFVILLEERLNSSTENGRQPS

[12] = molecular target: T10, Fus1, P11710; details: median of control spots 1200
T10 sequence (P11710 432-512, looked up): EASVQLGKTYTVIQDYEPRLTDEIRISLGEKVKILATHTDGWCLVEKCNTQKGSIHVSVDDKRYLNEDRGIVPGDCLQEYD

[13] = molecular target: GST; details: median of control spots 978
[14] = molecular target: T11, Hof1, Q05080; details: median of control spots 4086
T11 sequence (Q05080 590-669, looked up): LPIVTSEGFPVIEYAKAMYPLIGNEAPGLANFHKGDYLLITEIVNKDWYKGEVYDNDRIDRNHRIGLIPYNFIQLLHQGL

[15] = molecular target: T12, Hse1, P38753; details: median of control spots 1727
T12 sequence (P38753 208-285, looked up): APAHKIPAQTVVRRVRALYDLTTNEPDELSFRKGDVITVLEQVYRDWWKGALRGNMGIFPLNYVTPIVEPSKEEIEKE

[16] = molecular target: T13, Lsb1, P53281; details: median of control spots 388
T13 sequence (P53281 45-122, looked up): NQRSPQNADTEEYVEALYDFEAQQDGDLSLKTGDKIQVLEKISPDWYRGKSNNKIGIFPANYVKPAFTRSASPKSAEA

[17] = molecular target: T14, Lsb3, P43603; details: median of control spots 406
T14 sequence (P43603 385-451, looked up): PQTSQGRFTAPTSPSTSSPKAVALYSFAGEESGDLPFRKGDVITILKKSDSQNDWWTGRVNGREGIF

[18] = molecular target: T15, Lsb4, P32793; details: median of control spots 397
T15 sequence (P32793 402-468, looked up): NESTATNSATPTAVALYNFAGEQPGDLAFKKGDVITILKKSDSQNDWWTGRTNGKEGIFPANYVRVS

[19] = molecular target: Myo3, P36006; details: median of control spots 468
[20] = molecular target: T16, Myo5, Q04439; details: median of control spots 471
T16 sequence (Q04439 1072-1160, looked up): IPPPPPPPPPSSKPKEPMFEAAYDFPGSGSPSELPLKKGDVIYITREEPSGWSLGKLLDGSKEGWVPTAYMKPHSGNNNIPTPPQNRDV

[21] = molecular target: T17, Nbp2, Q12163; details: median of control spots 357
T17 sequence (Q12163 103-180, looked up): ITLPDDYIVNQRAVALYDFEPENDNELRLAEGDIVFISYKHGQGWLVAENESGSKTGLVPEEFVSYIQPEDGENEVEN

[22] = molecular target: T18, Pex13, P80667; details: median of control spots 1341
T18 sequence (P80667 295-386, looked up): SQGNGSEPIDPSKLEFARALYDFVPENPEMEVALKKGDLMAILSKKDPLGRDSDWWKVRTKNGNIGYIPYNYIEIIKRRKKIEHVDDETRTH

[23] = molecular target: T19, Pin3, Q06449; details: median of control spots 2171
T19 sequence (Q06449 53-122, looked up): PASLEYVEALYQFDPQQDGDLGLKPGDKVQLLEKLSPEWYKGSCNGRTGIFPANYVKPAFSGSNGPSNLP

[24] = molecular target: Rvs167, P39743; details: median of control spots 2707
Chain of Rvs167, P39743 (P39743 419-482): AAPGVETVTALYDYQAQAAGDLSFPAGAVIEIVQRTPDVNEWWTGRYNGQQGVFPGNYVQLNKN

[25] = molecular target: Sho1, P40073; details: median of control spots 1148
Chain of Sho1, P40073 (P40073 287-367): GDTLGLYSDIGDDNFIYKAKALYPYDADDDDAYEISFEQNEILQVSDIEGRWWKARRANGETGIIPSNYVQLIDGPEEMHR

[26] = molecular target: T20, Sla1-2, P32790; details: median of control spots 712
T20 sequence (P32790 60-140, looked up): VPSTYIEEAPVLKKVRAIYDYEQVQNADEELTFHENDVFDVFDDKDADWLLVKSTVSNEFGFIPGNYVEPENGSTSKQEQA

[27] = molecular target: T21, Sla1-3, P32790; details: median of control spots 5475
T21 sequence (P32790 344-424, looked up): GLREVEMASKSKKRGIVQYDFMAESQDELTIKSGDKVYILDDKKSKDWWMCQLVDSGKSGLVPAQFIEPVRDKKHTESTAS

B1: unnamed (peptide)
chain: VKPRQLFPIPLNKVD
SPOT intensity [1]: 10 | SPOT intensity [2]: 0 | SPOT intensity [3]: 0 | SPOT intensity [4]: 0 | SPOT intensity [5]: 0 | SPOT intensity [6]: 0 | SPOT intensity [7]: 0 | SPOT intensity [8]: 1 | SPOT intensity [9]: 0 | SPOT intensity [10]: 0 | SPOT intensity [11]: 0 | SPOT intensity [12]: 0 | SPOT intensity [13]: 0 | SPOT intensity [14]: 0 | SPOT intensity [15]: 0 | SPOT intensity [16]: 880 | SPOT intensity [17]: 0 | SPOT intensity [18]: 0 | SPOT intensity [19]: 0 | SPOT intensity [20]: 0 | SPOT intensity [21]: 0 | SPOT intensity [22]: 0 | SPOT intensity [23]: 5 | SPOT intensity [24]: 0 | SPOT intensity [25]: 8 | SPOT intensity [26]: 0 | SPOT intensity [27]: 0

B2: unnamed (peptide)
chain: YSRKKLPVVLSKMTL
SPOT intensity [1]: 64 | SPOT intensity [2]: 18 | SPOT intensity [3]: 1 | SPOT intensity [4]: 0 | SPOT intensity [5]: 0 | SPOT intensity [6]: 1 | SPOT intensity [7]: 3 | SPOT intensity [8]: 1 | SPOT intensity [9]: 0 | SPOT intensity [10]: 0 | SPOT intensity [11]: 1 | SPOT intensity [12]: 2 | SPOT intensity [13]: 2 | SPOT intensity [14]: 2 | SPOT intensity [15]: 1 | SPOT intensity [16]: 888 | SPOT intensity [17]: 1 | SPOT intensity [18]: 0 | SPOT intensity [19]: 1 | SPOT intensity [20]: 4 | SPOT intensity [21]: 0 | SPOT intensity [22]: 8 | SPOT intensity [23]: 20 | SPOT intensity [24]: 2 | SPOT intensity [25]: 47 | SPOT intensity [26]: 4 | SPOT intensity [27]: 12

B3: unnamed (peptide)
chain: YYNRQELALPKRMSS
SPOT intensity [1]: 14 | SPOT intensity [2]: 8 | SPOT intensity [3]: 0 | SPOT intensity [4]: 0 | SPOT intensity [5]: 1 | SPOT intensity [6]: 1 | SPOT intensity [7]: 3 | SPOT intensity [8]: 0 | SPOT intensity [9]: 4 | SPOT intensity [10]: 0 | SPOT intensity [11]: 3 | SPOT intensity [12]: 6 | SPOT intensity [13]: 3 | SPOT intensity [14]: 1 | SPOT intensity [15]: 2 | SPOT intensity [16]: 819 | SPOT intensity [17]: 24 | SPOT intensity [18]: 45 | SPOT intensity [19]: 11 | SPOT intensity [20]: 5 | SPOT intensity [21]: 1 | SPOT intensity [22]: 16 | SPOT intensity [23]: 327 | SPOT intensity [24]: 21 | SPOT intensity [25]: 9 | SPOT intensity [26]: 2 | SPOT intensity [27]: 7

B4: unnamed (peptide)
chain: HPRFVSPRIPSRIVK
SPOT intensity [1]: 133 | SPOT intensity [2]: 226 | SPOT intensity [3]: 0 | SPOT intensity [4]: 2 | SPOT intensity [5]: 0 | SPOT intensity [6]: 0 | SPOT intensity [7]: 0 | SPOT intensity [8]: 0 | SPOT intensity [9]: 0 | SPOT intensity [10]: 2 | SPOT intensity [11]: 0 | SPOT intensity [12]: 0 | SPOT intensity [13]: 0 | SPOT intensity [14]: 0 | SPOT intensity [15]: 9 | SPOT intensity [16]: 379 | SPOT intensity [17]: 41 | SPOT intensity [18]: 57 | SPOT intensity [19]: 3 | SPOT intensity [20]: 0 | SPOT intensity [21]: 2 | SPOT intensity [22]: 21 | SPOT intensity [23]: 86 | SPOT intensity [24]: 4 | SPOT intensity [25]: 40 | SPOT intensity [26]: 0 | SPOT intensity [27]: 15

B5: unnamed (peptide)
chain: NRPAIRIPSLKKPAL
SPOT intensity [1]: 74 | SPOT intensity [2]: 40 | SPOT intensity [3]: 1 | SPOT intensity [4]: 12 | SPOT intensity [5]: 1 | SPOT intensity [6]: 0 | SPOT intensity [7]: 13 | SPOT intensity [8]: 3 | SPOT intensity [9]: 0 | SPOT intensity [10]: 5 | SPOT intensity [11]: 0 | SPOT intensity [12]: 1 | SPOT intensity [13]: 1 | SPOT intensity [14]: 13 | SPOT intensity [15]: 20 | SPOT intensity [16]: 467 | SPOT intensity [17]: 0 | SPOT intensity [18]: 6 | SPOT intensity [19]: 3 | SPOT intensity [20]: 2 | SPOT intensity [21]: 2 | SPOT intensity [22]: 5 | SPOT intensity [23]: 9 | SPOT intensity [24]: 0 | SPOT intensity [25]: 39 | SPOT intensity [26]: 0 | SPOT intensity [27]: 14

B6: unnamed (peptide)
chain: KWVRRPKLMTPLTFS
SPOT intensity [1]: 67 | SPOT intensity [2]: 38 | SPOT intensity [3]: 0 | SPOT intensity [4]: 5 | SPOT intensity [5]: 1 | SPOT intensity [6]: 0 | SPOT intensity [7]: 11 | SPOT intensity [8]: 1 | SPOT intensity [9]: 0 | SPOT intensity [10]: 0 | SPOT intensity [11]: 1 | SPOT intensity [12]: 54 | SPOT intensity [13]: 1 | SPOT intensity [14]: 8 | SPOT intensity [15]: 16 | SPOT intensity [16]: 355 | SPOT intensity [17]: 5 | SPOT intensity [18]: 2 | SPOT intensity [19]: 6 | SPOT intensity [20]: 6 | SPOT intensity [21]: 3 | SPOT intensity [22]: 6 | SPOT intensity [23]: 53 | SPOT intensity [24]: 0 | SPOT intensity [25]: 19 | SPOT intensity [26]: 0 | SPOT intensity [27]: 44
